From US12545745B2, “Method for treating a degenerative neurological disorders comprising administering ASM inhibitor” (KYUNGPOOK NATIONAL UNIVERSITY INDUSTRY-ACADEMIC COOPERATION …, priority 2013, dated 2026) come the findings set out here.

The target of one assay is T1, ASM (Mus musculus, UniProt Q04519).
T1 construct: from tissue; host or cells: mouse serum/plasma and brain tissue (APP/PS1, RSD-stressed C57BL/6, FUS R521C mice)
T1 sequence (Q04519 45-627): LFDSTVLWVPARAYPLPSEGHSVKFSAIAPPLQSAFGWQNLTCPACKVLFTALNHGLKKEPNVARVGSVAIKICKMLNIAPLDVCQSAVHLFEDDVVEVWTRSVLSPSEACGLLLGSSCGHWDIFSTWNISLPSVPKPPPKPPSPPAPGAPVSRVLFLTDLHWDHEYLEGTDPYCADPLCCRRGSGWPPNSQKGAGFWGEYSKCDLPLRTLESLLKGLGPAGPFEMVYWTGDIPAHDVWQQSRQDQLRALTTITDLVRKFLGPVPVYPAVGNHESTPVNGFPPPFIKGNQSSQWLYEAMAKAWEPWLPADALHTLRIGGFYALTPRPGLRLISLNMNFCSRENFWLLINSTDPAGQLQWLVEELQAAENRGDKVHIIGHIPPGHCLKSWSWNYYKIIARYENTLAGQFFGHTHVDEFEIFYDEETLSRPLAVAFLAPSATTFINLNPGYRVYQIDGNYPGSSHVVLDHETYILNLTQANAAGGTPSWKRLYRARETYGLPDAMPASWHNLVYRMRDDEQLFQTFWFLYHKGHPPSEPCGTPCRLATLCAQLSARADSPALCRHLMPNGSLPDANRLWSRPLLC
Briefly: ASM activity in plasma of ALS animal model (FUS R521C mice). To be noted: 7-week-old ALS mice, 50 mg/kg i.p. twice weekly, vs PBS; FIG. 56B. The assay is classed as in vivo.

For assay [1], the system named is depression-induced animal model (WT/RSD). Briefly: Depression behaviour tests (Open field, Dark & Light, Tail suspension, Force swim) in RSD mice. The assay is classed as in vivo, mouse. The following applies: 50 mg/kg i.p. twice weekly, vs PBS, FIG. 59A-59D. The method, then: For depression-induced animal model, C57BL/6 mice (Charles River, UK) were used as those with depression by inducing Repeated Social Defeat (RSD) stress for 10 days. Repeated Social Defeat (RSD) stress was induced by placing two male, 6-8 week-old C57BL/6 mice with one male, 6-8 week-old CD-1 mouse (aggressive intruder mouse) in the same cage for 10 days, 2 hours daily. After 10 days, depression of C57BL/6 mice was confirmed through the depression behavior test. To confirm the therapeutic effect of ASM inhibitor (Smpd1 miR RNAi) in the depressed animal model, 6-week-old male C57BL/6 mice were injected with said ASM inhibitor via tail vein injection twice weekly in a dosage of 50 μg/mice for 4 weeks prior to the induction of depression. Four weeks later, behavioral analysis was performed after inducing Repeated Social Defeat (RSD) stress for 10 days, followed by obtaining plasma samples of the mice (FIG. 47A). To determine whether ASM inhibition by Smpd1 miR RNAi injection leads to the improvement of depression in a depression-induced animal model, an Open field test, a Dark & Light test, a Tail suspension test and Force swim test were performed, respectively. For depression-induced animal model, C57BL/6 mice (Charles River, UK) were used as those with depression by inducing Repeated Social Defeat (RSD) stress for 10 days. […]

Assay [2] deals with ALS animal model (FUS R521C). The assay can be described thus: Motor function tests (Tail suspension, Hanging wire, Rotarod) in ALS animal model. The format is in vivo, mouse. The following applies: ALS mice, 50 mg/kg i.p. twice weekly, vs PBS, FIG. 57A-57C.

B1: ASM-ab 23A12C3: self-made monoclonal ASM antibody, Koma biotech; heavy chain SEQ ID NO. 29, light chain SEQ ID NO. 30 (antibody)
heavy: MGWSWIFLFLLSGTAGVHSEVQLQQSGPVLVKPGASVKMSCKASGYTFTDYYMNWVKQSHGKSLEWIGVINPYNDGTSYNQKFKGKATLTVDKSSSTAYMELNSLTSEDSAVYYCAREKLYYYGRDYAMDYWGQGTSVTVSSAKTTPPSVYPLAPGSAAQTNSMVTLGCLVKGYFPEPVTVTWNSGSLSSGVHTFPAVLQSDLYTLSSSVTVPSSTWPSQTVTCNVAHPASSTKVDKKIVPRDCGCKPCICTVPEVSSVFIFPPKPKDVLTITLTPKVTCVVVDISKDDPEVQFSWFVDDVEVHTAQTKPREEQINSTFRSVSELPIMHQDWLNGKEFKCRVNSAAFPAPIEKTISKTKGRPKAPQVYTIPPPKEQMAKDKVSLTCMITNFFPEDITVEWQWNGQPAENYKNTQPIMDTDGSYFVYSKLNVQKSNWEAGNTFTCSVLHEGLHNHHTEKSLSHSPGK
light: MSSAQFLGLLLLCFQGTRCDIQMTQTTSSLSASLGDRVTISCRSSQDISNYLNWCQQKPDGTVKLLIYYTSRLHSGVPSRFSGSGSGTDYSLTISNLEQEDIATYFCQQDNTLPYTFGGGTKLEIKRADAAPTVSIFPPSSEQLTSGGASVVCFLNNFYPKDINVKWKIDGSERQNGVLNSWTDQDSKDSTYSMSSTLTLTKDEYERHNSYTCEATHKTSTSPIVKSFNRNEC
modifications: 23A12C3_Heavy chain; 23A12C3_Light chain
notes: self-made monoclonal ASM antibody, Koma biotech; 30
Turning to B1, the “level of ASM activity in the plasma” value in the assay with ASM was “remarkably low”. Moreover, the symptoms of depression entry in assay [1] was “significantly improve”. Further, the “impairment in motor function” value in assay [2] is reported as “improved”.
